From the Human Domainome abundance scans (Beltran et al. 2025)
± gives the uncertainty stated by the source.

B1: Cullin-9, residues 2234 to 2275; numbered along this chain, Q8IWT3 (parent)
chain: KRCPSCQAPIEKNEGCLHMTCAKCNHGFCWRCLKSWKPNHKD

Variants of: B1
Assay: abundance fitness (aPCA) (normalised: wild type 0, dead -1); higher = more abundant; growth selection in yeast, the domain comes from the species named
Conditions: Homo sapiens

Row | Variant | abundance fitness
1 | KRCPSCQAPIEKNEGCLHMTCAKCNHDFCWRCLKSWKPNHKD | 0.193 ± 0.14
2 | KRCPSCQAPIEKNEGCLHMTCAKCNHWFCWRCLKSWKPNHKD | -0.005 ± 0.11
3 | KRCPSCQAPIEKNEGCLHMTCAKCNHYFCWRCLKSWKPNHKD | -0.425 ± 0.3
4 | KRCPSCQAPIEKNEGCLHMTCAKCNHAFCWRCLKSWKPNHKD | 0.194 ± 0.077
5 | KRCPSCQAPIEKNEGCLHMTCAKCNHLFCWRCLKSWKPNHKD | -0.457 ± 0.099
6 | KRCPSCQAPIEKNEGCLHMTCAKCNHSFCWRCLKSWKPNHKD | 0.256 ± 0.097
7 | KRCPSCQAPIEKNEGCLHMTCAKCNHKFCWRCLKSWKPNHKD | 0.075 ± 0.14
8 | KRCPSCQAPIEKNEGCLHMTCAKCNHEFCWRCLKSWKPNHKD | 0.708 ± 0.091
9 | KRCPSCQAPIEKNEGCLHMTCAKCNHTFCWRCLKSWKPNHKD | 0.326 ± 0.11
10 | KRCPSCQAPIEKNEGCLHMTCAKCNHPFCWRCLKSWKPNHKD | -0.129 ± 0.15
11 | KRCPSCQAPIEKNEGCLHMTCAKCNHCFCWRCLKSWKPNHKD | 0.036 ± 0.12
12 | KRCPSCQAPIEKNEGCLHMTCAKCNHIFCWRCLKSWKPNHKD | -0.083 ± 0.26
13 | KRCPSCQAPIEKNEGCLHMTCAKCNHRFCWRCLKSWKPNHKD | 0.159 ± 0.074
14 | KRCPSCQAPIEKNEGCLHMTCAKCNHQFCWRCLKSWKPNHKD | 0.439 ± 0.13
15 | KRCPSCQAPIEKNEGCLHMTCAKCNHMFCWRCLKSWKPNHKD | -0.264 ± 0.18
16 | KRCPSCQAPIEKNEGCLHMTCAKCNHHFCWRCLKSWKPNHKD | 0.379 ± 0.14
17 | KRCPSCQAPIEKNEGCLHMTCAKCNFGFCWRCLKSWKPNHKD | 0.146 ± 0.2
18 | KRCPSCQAPIEKNEGCLHMTCAKCNTGFCWRCLKSWKPNHKD | -0.226 ± 0.16
19 | KRCPSCQAPIEKNEGCLHMTCAKCNWGFCWRCLKSWKPNHKD | -0.541 ± 0.14
20 | KRCPSCQAPIEKNEGCLHMTCAKCNYGFCWRCLKSWKPNHKD | -0.1 ± 0.12

Row | Variant | abundance fitness
21 | KRCPSCQAPIEKNEGCLHMTCAKCNPGFCWRCLKSWKPNHKD | -0.154 ± 0.098
22 | KRCPSCQAPIEKNEGCLHMTCAKCNDGFCWRCLKSWKPNHKD | 0.063 ± 0.11
23 | KRCPSCQAPIEKNEGCLHMTCAKCNCGFCWRCLKSWKPNHKD | -0.628 ± 0.15
24 | KRCPSCQAPIEKNEGCLHMTCAKCNIGFCWRCLKSWKPNHKD | -0.367 ± 0.2
25 | KRCPSCQAPIEKNEGCLHMTCAKCNSGFCWRCLKSWKPNHKD | 0.055 ± 0.12
26 | KRCPSCQAPIEKNEGCLHMTCAKCNRGFCWRCLKSWKPNHKD | -0.213 ± 0.078
27 | KRCPSCQAPIEKNEGCLHMTCAKCNLGFCWRCLKSWKPNHKD | -0.419 ± 0.094
28 | KRCPSCQAPIEKNEGCLHMTCAKCNAGFCWRCLKSWKPNHKD | -0.022 ± 0.089
29 | KRCPSCQAPIEKNEGCLHMTCAKCNMGFCWRCLKSWKPNHKD | -0.109 ± 0.12
30 | KRCPSCQAPIEKNEGCLHMTCAKCNEGFCWRCLKSWKPNHKD | -0.091 ± 0.093
31 | KRCPSCQAPIEKNEGCLHMTCAKCNGGFCWRCLKSWKPNHKD | -0.02 ± 0.075
32 | KRCPSCQAPIEKNEGCLHMTCAKCNQGFCWRCLKSWKPNHKD | -0.17 ± 0.11
33 | KRCPSCQAPIEKNEGCLHMTCAKCNVGFCWRCLKSWKPNHKD | -0.266 ± 0.081
34 | KRCPSCQAPIEKNEGCLHMTCAKCNKGFCWRCLKSWKPNHKD | -0.314 ± 0.16
35 | KRCPSCQAPIEKNEGCLHMTCAKCNNGFCWRCLKSWKPNHKD | -0.287 ± 0.16
36 | KRCPSCQAPIEKNEGCLHMTCAKCWHGFCWRCLKSWKPNHKD | -0.44 ± 0.12
37 | KRCPSCQAPIEKNEGCLHMTCAKCKHGFCWRCLKSWKPNHKD | -0.092 ± 0.14
38 | KRCPSCQAPIEKNEGCLHMTCAKCMHGFCWRCLKSWKPNHKD | -0.06 ± 0.14
39 | KRCPSCQAPIEKNEGCLHMTCAKCGHGFCWRCLKSWKPNHKD | 0.208 ± 0.077
40 | KRCPSCQAPIEKNEGCLHMTCAKCTHGFCWRCLKSWKPNHKD | -0.106 ± 0.11

Row | Variant | abundance fitness
41 | KRCPSCQAPIEKNEGCLHMTCAKCPHGFCWRCLKSWKPNHKD | -0.382 ± 0.12
42 | KRCPSCQAPIEKNEGCLHMTCAKCVHGFCWRCLKSWKPNHKD | -0.265 ± 0.088
43 | KRCPSCQAPIEKNEGCLHMTCAKCRHGFCWRCLKSWKPNHKD | -0.25 ± 0.081
44 | KRCPSCQAPIEKNEGCLHMTCAKCSHGFCWRCLKSWKPNHKD | 0.03 ± 0.1
45 | KRCPSCQAPIEKNEGCLHMTCAKCQHGFCWRCLKSWKPNHKD | 0.082 ± 0.14
46 | KRCPSCQAPIEKNEGCLHMTCAKCIHGFCWRCLKSWKPNHKD | -0.121 ± 0.22
47 | KRCPSCQAPIEKNEGCLHMTCAKCNHGHCWRCLKSWKPNHKD | 0.322 ± 0.16
48 | KRCPSCQAPIEKNEGCLHMTCAKCNHGVCWRCLKSWKPNHKD | -0.236 ± 0.096
49 | KRCPSCQAPIEKNEGCLHMTCAKCNHGKCWRCLKSWKPNHKD | -0.288 ± 0.11
50 | KRCPSCQAPIEKNEGCLHMTCAKCNHGLCWRCLKSWKPNHKD | -0.233 ± 0.1
51 | KRCPSCQAPIEKNEGCLHMTCAKCNHGACWRCLKSWKPNHKD | -0.173 ± 0.084
52 | KRCPSCQAPIEKNEGCLHMTCAKCNHGECWRCLKSWKPNHKD | -0.074 ± 0.089
53 | KRCPSCQAPIEKNEGCLHMTCAKCNHGNCWRCLKSWKPNHKD | 0.135 ± 0.18
54 | KRCPSCQAPIEKNEGCLHMTCAKCNHGWCWRCLKSWKPNHKD | -0.255 ± 0.091
55 | KRCPSCQAPIEKNEGCLHMTCAKCNHGMCWRCLKSWKPNHKD | -0.39 ± 0.14
56 | KRCPSCQAPIEKNEGCLHMTCAKCNHGPCWRCLKSWKPNHKD | 0.048 ± 0.12
57 | KRCPSCQAPIEKNEGCLHMTCAKCNHGCCWRCLKSWKPNHKD | -0.189 ± 0.14
58 | KRCPSCQAPIEKNEGCLHMTCAKCNHGDCWRCLKSWKPNHKD | 0.101 ± 0.17
59 | KRCPSCQAPIEKNEGCLHMTCAKCNHGTCWRCLKSWKPNHKD | -0.219 ± 0.1
60 | KRCPSCQAPIEKNEGCLHMTCAKCNHGQCWRCLKSWKPNHKD | 0.084 ± 0.11
